Laboratory results taken from IntAct's records for PubMed 15555586.

B1: Suppressor of kinetochore protein 1 (Schizosaccharomyces pombe (strain ATCC 38366 / 972)), Q9Y709 (parent)
chain: MSKIKLISSDNEEFVVDQLIAERSMLIKNMLEDVGEINVPIPLPNVSSNVLRKVLEWCEHHKNDLYSGTEEESDIRLKKSTDIDEWDRKFMAVDQEMLFEIVLASNYLDIKPLLDTGCKTVANMIRGKSPEDIRKTFNIPNDFTPEEEEQIRKENEWAEDR
partner: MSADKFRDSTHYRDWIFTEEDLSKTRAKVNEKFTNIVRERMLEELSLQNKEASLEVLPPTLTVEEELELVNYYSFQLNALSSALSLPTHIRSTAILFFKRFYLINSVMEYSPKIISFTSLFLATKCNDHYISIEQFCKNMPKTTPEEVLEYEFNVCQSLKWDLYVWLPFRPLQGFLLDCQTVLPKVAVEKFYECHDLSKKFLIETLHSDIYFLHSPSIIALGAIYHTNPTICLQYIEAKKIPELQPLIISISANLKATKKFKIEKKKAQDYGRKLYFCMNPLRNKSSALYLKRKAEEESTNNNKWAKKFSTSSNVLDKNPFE

Variants of: B1
Conditions: with cgm2_schpo mcs2, P36613

Row | effect of a mutation on the interaction | Variant
1 | decreasing interaction | I139N
